From patent publication US20230391859A1 (Novo Nordisk, published 2023)

Experiments:
monomeric TTR [1] = biological target: T1, monomeric TTR (UniProt P02766 21-147); assay: BIACORE (SPR); off-rate from monomers
monomeric TTR [2] = biological target: T1, monomeric TTR; assay: BIACORE (SPR); monomeric TTR (affinity)
aggregated TTR [3] = biological target: T2, aggregated TTR (UniProt P02766 21-147); assay: BIACORE (SPR); off-rate from amyloid (aggregated TTR)
aggregated TTR [4] = biological target: T2, aggregated TTR; assay: BIACORE (SPR), apparent affinity with avidity; same value in mass units; same KD in mass units
aggregated TTR [5] = biological target: T2, aggregated TTR; assay: BIACORE (SPR), apparent affinity with avidity; aggregated TTR; apparent affinity (affinity+avidity)

B1: PRX004 (antibody, human IgG1, kappa, V domains shown)
VH: EVQLVESGGGLVQPGGSLKLSCAASGFTFSSYTMSWVRQTPEKRLELVAEINNSGDTTYYPDTVKGRFTISRDNAKNTLYLQMSSLKSEDTAMYYCARHYYYGGGYGGWFFDVWGQGTLVTVSS
VL: DIVMTQSPLSLPVTPGEPASISCRSSKSLLHSNGNTYLYWFLQKPGQSPQLLIYRVSNLASGVPSRFSGSGSGTDFTLKISRVEAEDVGVYYCMQHLEYPLTFGQGTKLEIKR
notes: Humanized IgG1 kappa monoclonal antibody; also called humanized immunoglobulin (Ig) G1 kappa mAb
Question: B1 was tested. Which koff (monomeric TTR [1]) did it give?
Answer: Its koff is 0.0037 s⁻¹.

Question: And the Kd (monomeric TTR [2])?
Answer: The Kd was 134 nM.

Question: And the koff (aggregated TTR [3])?
Answer: Its koff is 0.0002 s⁻¹.

Question: And the Kd (aggregated TTR [4])?
Answer: Its Kd is 0.48 µg/mL.

Question: What about the Kd (aggregated TTR [5]) of the same binder?
Answer: Its Kd is 3.2 nM.
